Paper PMC5714165 (Nucleic Acids Research, 2017)

T1: eIF2Bβ (human, UniProt P49770 1-351)
T1 sequence: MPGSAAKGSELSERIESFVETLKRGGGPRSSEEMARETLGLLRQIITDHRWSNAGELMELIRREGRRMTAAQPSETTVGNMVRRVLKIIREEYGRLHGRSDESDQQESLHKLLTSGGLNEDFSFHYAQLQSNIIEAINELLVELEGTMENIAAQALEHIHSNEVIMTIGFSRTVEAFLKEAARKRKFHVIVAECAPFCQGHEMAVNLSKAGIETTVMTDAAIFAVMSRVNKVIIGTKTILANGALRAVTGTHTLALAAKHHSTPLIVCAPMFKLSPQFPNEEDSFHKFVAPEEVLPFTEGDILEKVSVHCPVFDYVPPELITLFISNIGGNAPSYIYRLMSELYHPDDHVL


What was measured:
[1] = molecular target: eIF2α-NTD_(S51D) (phosphomimetic N-terminal domain of eIF2α, aa 1–184) (human); experiment: fluorescence polarisation
eIF2Bβ = molecular target: T1, eIF2Bβ; experiment: SEC

eIF2Breg (eIF2B regulatory subcomplex of eIF2Bα, β and δ), reconstituted from individual subunits, sequence (Q9UI10 whole entry, stated change not applied, one chain of several): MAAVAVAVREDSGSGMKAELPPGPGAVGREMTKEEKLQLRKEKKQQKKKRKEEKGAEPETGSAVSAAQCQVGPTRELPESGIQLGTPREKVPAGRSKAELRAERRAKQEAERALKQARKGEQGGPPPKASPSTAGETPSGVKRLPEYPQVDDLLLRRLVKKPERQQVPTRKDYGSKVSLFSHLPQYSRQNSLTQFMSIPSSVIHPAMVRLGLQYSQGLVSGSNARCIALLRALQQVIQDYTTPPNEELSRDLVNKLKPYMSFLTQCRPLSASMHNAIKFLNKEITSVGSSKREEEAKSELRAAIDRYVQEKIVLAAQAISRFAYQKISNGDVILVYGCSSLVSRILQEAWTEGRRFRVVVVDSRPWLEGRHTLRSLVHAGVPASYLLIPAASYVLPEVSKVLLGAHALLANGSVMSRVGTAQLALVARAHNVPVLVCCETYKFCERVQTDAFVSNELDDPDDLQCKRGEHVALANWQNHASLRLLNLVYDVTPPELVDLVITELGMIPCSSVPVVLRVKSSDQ

fold higher affinity than for WT eIF2α-NTD [1] [fold] | binding result (eIF2Bβ) | Molecule
< 2 | – | eIF2Breg (eIF2B regulatory subcomplex of eIF2Bα, β and δ), reconstituted from individual subunits (from UniProt Q14232;P49770;Q9UI10)
– | binds | eIF2Bα_(I301E/L305D) mutant (designated as eIF2Bα in the paper) (natural protein) MDDKELIEYFKSQMKEDPDMASAVAAIRTLLEFLKRDKGETIQGLRANLTSAIETLCGVDSSVAVSSGGELFLRFISLASLEYSDYSKCKKIMIERGELFLRRISLSRNKIADLCHTFIKDGATILTHAYSRVVLRVLEAAVAAKKRFSVYVTESQPDLSGKKMAKALCHLNVPVTVVLDAAVGYIMEKADLVIVGAEGVVENGGIINKIGTNQMAVCAKAQNKPFYVVAESFKFVRLFPLNQQDVPDKFKYKADTLKVAQTGQDLKEEHPWVDYTAPSLITLLFTDLGVLTPSAVSDELEKLYD
